Values belong to the molecule of their own block, whether it stands above or below them.
Assays:
[1] = biological target: PCNA (Saccharomyces cerevisiae) (UniProt P15873); test: surface plasmon resonance; conditions: cited from earlier work
AF488-labeled PCNA [2] = biological target: AF488-labeled PCNA (UniProt P15873); test: other fluorescence titration; PCNA opening (unquenching) assay: fluorescence of 10 nM PCNA-AF488_2 at 517 nm, increasing RFC, 0.5 mM ATPγS in place of ATP; assay buffer; equilibrium, quadratic fit
AF488-labeled PCNA [3] = biological target: AF488-labeled PCNA (UniProt P15873)
MDCC labeled PCNA [4] = biological target: MDCC labeled PCNA (UniProt P15873); test: other fluorescence titration; fluorescence intensity of 10 nM PCNA-MDCC at 470 nm, increasing RFC, 0.5 mM ATP; assay buffer 30 mM HEPES-NaOH pH 7.5, 150 mM NaCl, 10 mM MgCl2, 0.5 mM EDTA, 2 mM DTT, 2% glycerol; equilibrium, quadratic fit
MDCC labeled PCNA [5] = biological target: MDCC labeled PCNA (UniProt P15873); test: other fluorescence titration; fluorescence intensity of 10 nM PCNA-MDCC at 470 nm, increasing RFC, 0.5 mM ATPγS in place of ATP; assay buffer; equilibrium, quadratic fit
AF488-labeled PCNA [6] = biological target: AF488-labeled PCNA (UniProt P15873); remark: listed apart in the source
AF488-labeled PCNA [7] = biological target: AF488-labeled PCNA (UniProt P15873); test: other fluorescence titration; PCNA opening (unquenching) assay: fluorescence of 10 nM PCNA-AF488_2 at 517 nm, increasing RFC, 0.5 mM ATP; assay buffer; equilibrium, quadratic fit
[8] = biological target: RFC clamp loader (WT; Rfc1 N-terminal truncation) (Saccharomyces cerevisiae, UniProt P38630;P40348;P38629;P40339;P38251 284-861;1-353;1-340;1-323;1-354); test: fluorescence anisotropy; 0.5 mM ATPgS; no PCNA; 20 nM p/t DNA-RhX, 0.5 mM ATPgS, varied RFC, with or without 2 uM PCNA; buffer, salt, pH and temperature not in the material (Section 3.1 text missing); conditions: protein: recombinant; tags: Rfc1 N-terminal 6xHis and kinase recognition motif replacing residues 1-283; copies: 1;1;1;1;1; label: X-rhodamine (RhX) on 5' end of template; primer-template: 26 bp duplex with 34 nt 5' template overhang
[9] = biological target: RFC WB-EA (Walker B Glu to Ala quadruple mutant) (Saccharomyces cerevisiae, UniProt P38630;P40348;P38629;P40339;P38251 284-861;1-353;1-340;1-323;1-354, E425A;E141A;E118A;E115A); test: as above; conditions: protein: recombinant; tags: Rfc1 N-terminal 6xHis and kinase recognition motif replacing residues 1-283; copies: 1;1;1;1;1; label: X-rhodamine (RhX) on 5' end of template; primer-template: 26 bp duplex with 34 nt 5' template overhang
[10] = biological target: RFC WB-EQ (Walker B Glu to Gln quadruple mutant) (Saccharomyces cerevisiae, UniProt P38630;P40348;P38629;P40339;P38251 284-861;1-353;1-340;1-323;1-354, E425Q;E141Q;E118Q;E115Q); test: as above; conditions: protein: recombinant; tags: Rfc1 N-terminal 6xHis and kinase recognition motif replacing residues 1-283; copies: 1;1;1;1;1; label: X-rhodamine (RhX) on 5' end of template; primer-template: 26 bp duplex with 34 nt 5' template overhang
[11] = biological target: RFC clamp loader (WT; Rfc1 N-terminal truncation);PCNA (Saccharomyces cerevisiae;Saccharomyces …, UniProt P38630;P40348;P38629;P40339;P38251;P15873 284-861;1-353;1-340;1-323;1-354;1-258, |); test: fluorescence anisotropy; 0.5 mM ATPgS; 2 uM PCNA; 20 nM p/t DNA-RhX, 0.5 mM ATPgS, varied RFC, with or without 2 uM PCNA; buffer, salt, pH and temperature not in the material (Section 3.1 text missing); conditions: protein: recombinant;recombinant; tags: Rfc1 N-terminal 6xHis and kinase recognition motif replacing residues 1-283;; copies: 1;1;1;1;1;3; label: X-rhodamine (RhX) on 5' end of template; primer-template: 26 bp duplex with 34 nt 5' template overhang
[12] = biological target: RFC WB-EQ (Walker B Glu to Gln quadruple mutant);PCNA (Saccharomyces cerevisiae;Saccharomyces …, UniProt P38630;P40348;P38629;P40339;P38251;P15873 284-861;1-353;1-340;1-323;1-354;1-258, E425Q;E141Q;E118Q;E115Q|); test: as above; conditions: protein: recombinant;recombinant; tags: Rfc1 N-terminal 6xHis and kinase recognition motif replacing residues 1-283;; copies: 1;1;1;1;1;3; label: X-rhodamine (RhX) on 5' end of template; primer-template: 26 bp duplex with 34 nt 5' template overhang
[13] = biological target: RFC WB-EA (Walker B Glu to Ala quadruple mutant);PCNA (Saccharomyces cerevisiae;Saccharomyces …, UniProt P38630;P40348;P38629;P40339;P38251;P15873 284-861;1-353;1-340;1-323;1-354;1-258, E425A;E141A;E118A;E115A|); test: as above; conditions: protein: recombinant;recombinant; tags: Rfc1 N-terminal 6xHis and kinase recognition motif replacing residues 1-283;; copies: 1;1;1;1;1;3; label: X-rhodamine (RhX) on 5' end of template; primer-template: 26 bp duplex with 34 nt 5' template overhang

Chain of PCNA (Saccharomyces cerevisiae) (P15873 whole entry): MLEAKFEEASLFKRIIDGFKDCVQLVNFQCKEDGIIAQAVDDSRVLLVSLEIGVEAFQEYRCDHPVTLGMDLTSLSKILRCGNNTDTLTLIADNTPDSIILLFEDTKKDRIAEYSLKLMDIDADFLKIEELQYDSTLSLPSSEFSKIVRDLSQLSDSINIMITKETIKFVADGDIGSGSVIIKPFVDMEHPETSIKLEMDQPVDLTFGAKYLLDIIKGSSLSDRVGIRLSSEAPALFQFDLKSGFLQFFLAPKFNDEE

Molecule: Replication factor C (from UniProt P38630)
Kd [1]: 1.3 nM

Kd (AF488-labeled PCNA [2]): 5.8 nM
PCNA opening: increase of AF488 fluorescence of 10 nM PCNA-AF488 2 at saturating RFC, 0.5 mM ATP (AF488-labeled PCNA [3]): 2 fold
Kd (MDCC labeled PCNA [4]): 7.1 nM
Kd (MDCC labeled PCNA [5]): 13 nM
PCNA opening: increase of AF488 fluorescence of 10 nM PCNA-AF488 2 at saturating RFC, 0.5 mM ATPγS (AF488-labeled PCNA [6]): 1.5 fold
Kd (AF488-labeled PCNA [7]): 11 nM
Molecule: wild-type replication factor C (RFC) complex, Rfc1 lacking its first 283 residues (from UniProt P38630 284-861; P40348 1-353; P38629 1-340; P40339 1-323; P38251 1-354)

B1: p/t DNA-RhX (26/60-mer primed template) (dsDNA)
DNA 1: TTCAGGTCAGAAGGGTTCTATCTCTGTTGGCCAGAATGTCCCTTTTATTACTGGTCGTGT
DNA 2: ACACGACCAGTAATAAAAGGGACATT
modifications: 5' C6 amino linker on the 60-mer template
Kd [8]: 91 ± 28 nM
Kd [9]: 1060 ± 200 nM
Kd [10]: 690 ± 400 nM
Kd [11]: 37 ± 13 nM
Kd [12]: 460 ± 200 nM
Kd [13]: 1800 ± 700 nM
